{
  "source": "paper doi:10.1101/847772",
  "biological_target": "biotin-labelled M3C phenomycin (Streptomyces fervens MA 564-Cl)",
  "experiment": "BLI",
  "note": "pKd: −log10 of the molar value.",
  "data": [
    {"substance": "human 80S ribosome (complex)", "values": [
      {"measurement": "pKd", "value": 10.64}
    ]}
  ]
}
